B1: LexA-BRCA1-RF fusion construct (amino-terminal 100 amino acids of human BRCA1, wild type, fused to the LexA DNA-binding domain) (other)
chain: MDLSALRVEEVQNVINAMQKILECPICLELIKEPVSTKCDHIFCKFCMLKLLNQKKGPSQCPLCKNDITKRSLQESTRFSQLVEELLKIICAFQLDTGLE
B2: GST-hBAP1(483-594 of SEQ ID NO: 2) fusion protein lacking the minimal interaction domain (other)
chain: QPSPTPSNESTDTASEIGSAFNSPLRSPIRSANPTRPSSPVTSHISKVLFGEDDSLLRVDCIRYNRAVRDLGPVISTGLLHLAEDGVLSPLALTEGGKGSSPSIRPIQGSQG

Tests used:
[1] = biological target: GST (glutathione-S-transferase alone) (Schistosoma japonicum (Blood fluke), UniProt P08515 = GST); test: GST pull-down, SDS-PAGE and fluorography
[2] = biological target: full length BRCA1 (human, UniProt P38398); test: GST pull-down, SDS-PAGE and fluorography

| Binder | binding result [1] | binding result [2] |
| --- | --- | --- |
| B1 | no binding | – |
| B2 | – | no binding |

Source: US6307035, “BRCA1 associated polynucleotide (BAP-1) and uses therefor” (The Wistar Institute of Anatomy and Biology, dated 2001)
